In patent US20260116991A1 (HAINAN SIMCERE ZAIMING PHARMACEUTICAL, published 2026):
Substitutions are numbered along the chain they refer to.

B1: F4.18.4 human-murine chimeric antibody (antibody, human IgG1, kappa, V domains shown)
VH: QVQLHQSGAEMAKPGASVNLSCKTSGFTFTDYGISWVKQRTRQGLEWIGDIYPRHINIYYNEKFKDKATLTADRSSSTAYMELRSMTSEDSAVYFCARRGTTGRGALDYWGQGTSLTVSS
VL: DILLTQSPAILSVSPGERVSFSCRASQSIGTSIHWYQQRTNGSPRLLIKYAFESISGIPSRFGGSGSRTDFTLTINSVESEDIADYYCQQTYNWPYTFGGGTKLEIKR
B2: hAb001H1L1 (antibody, human IgG1, V domains shown)
VH: EVQLVESGGGLVQPGGSLRLSCAASGFSFNTNAMNWVRQAPGKGLEWVGRIRSKSNNYATYYADSVKDRFTISRDDSKNSLYLQMNSLKTEDTAVYYCVRDGYYVLFAYWGQGTLVTVSS
VL: DIVMTQTPLSLPVTPGEPASISCRFSQSIVNSNGNTYLEWFLQKPGQSPQLLIYKVSNRFSGVPDRFSGSGSGTDFTLKISRVEAEDVGVYYCFQGSHVPFTFGQGTKLEIK
notes: Humanized F2.169.2; VH H1 + VL L1; expressed as human IgG1
B3: hAb001H1aL1a (antibody, human IgG1, V domains shown)
VH: B2 VH with D68G
VL: B2 VL with N33D
notes: Humanized F2.169.2; VH H1a + VL L1a; expressed as human IgG1
B4: hAb001H1L1b (antibody, human IgG1, V domains shown)
VH: B2 VH
VL: B2 VL with G34A
notes: Humanized F2.169.2; VH H1 + VL L1b; expressed as human IgG1
B5: hAb001H1L1a (antibody, human IgG1, V domains shown)
VH: B2 VH
VL: B2 VL with N33D
notes: Humanized F2.169.2; VH H1 + VL L1a; expressed as human IgG1
B6: F2.152.3 human-murine chimeric antibody (antibody, human IgG1, kappa, V domains shown)
VH: EVQLQQSGPELVKPGASVKMSCKASGYTFTDYYMTWVKQSHGKSLEWIGRVNPRNGDTTYNQKFEGRATLTLDKSLSTAFMQLNSLTSEDSAVYYCINSKGHFDYWGQGTTLTVSS
VL: DVLMTQTPLSLPVSLGDQASISCRSSQSIVHSNGNTYLEWFLQKPGQSPKSLIYKVSNRFSGVPDRFSGSGSGTDFTLKISRVEAEDLGVYYCFQGSHVPPTFGAGTKLELKR
B7: F4.21.16 human-murine chimeric antibody (antibody, human IgG1, kappa, V domains shown)
VH: DVQLQESGPGLVKPSQSLSLTCSVTGYSITSGYYWNWIRQFPGNKLEWMGYISYDVTVNYNPSLKNRISITRDTSKNQFFLKLNSVTTEDTATYYCATITSVASMDHWGQGTSVTVSS
VL: DILMTQTPLSLPVSLGDQASISCRSSQNIVHRNGNTYLEWYLQKPGQSPKLLLYKVSNRFSGVPDRFSGSGSGTDFTLKISRVEAEDLGIYYCFQGSHFPFTFGSGTKLEIKR
B8: F4.13.7 human-murine chimeric antibody (antibody, human IgG1, kappa, V domains shown)
VH: QVQLQQPGAELVKPGASVKLSCKASGYTFTNNWVHWVKQRPGQGLEWTGMIHPDSGSTIYNEKFQSKATLTVDKSSSTAYMQLSSLTSEDSAVYYCARGYYDSSSYYAMDYWGQGTSVTVSS
VL: NIQMTQTTSSLSASLGDRVTISCSASQGIFNYLNWYQQKPDGTVKLLIYYTSSLHSGVPSRFSGSGSGTDYSLTISNLEPEDIATYYCQQYSKLPWTFGGGTKLEIKR
B9: F2.23.8 human-murine chimeric antibody (antibody, human IgG1, kappa, V domains shown)
VH: QVQLQQSGAELVRPGASVKLSCKASGYTFTDYEMHWVKQTPVHGLEWFGAIDPETGGTAYNQKFRAKATLTADKSSSTAYMELRSLTSEDSAVYYCTRFYSFAYWGQGTLVTVSA
VL: DVVMTQTPLSLPVSLGDQASISCRSSQSLVHSNGNTYLQWYLQKPGQSPKLLIYKVSNRFSGVPDRFSGSGSGTDFTLKITRVEAEDLGVYFCSQSTHVPYTFGSGTKLEIKR
B10: F3.38.7 human-murine chimeric antibody (antibody, human IgG1, kappa, V domains shown)
VH: QVQLQQSGAELVRPGASVKLSCKASGYTFTDYEIHWVKQTPVLGLEWIGAIDPKTGNTAYNQKFMGKATLTADKSSTTAYMDLRSLTSEDSAVYYCTRYFSFAYWGQGTLVTVSA
VL: B6 VL with S28T, I29F, E39Q, F41Y, S51L, P101Y, A105S, L111I
B11: F3.54.12 human-murine chimeric antibody (antibody, human IgG1, kappa, V domains shown)
VH: QVQLQQSGAELVRPGASVKLSCKASGYTFTDYEMHWVKQTPVHGLEWIGAIDPETGNTAYIQKFKGKATLTTDKSSSTAYMELRSLTSEDSAVYYCTRFYSYSHWGQGTTLTVSS
VL: B9 VL with Q39H, G71S, T81S, S96N, Y101P, S105G
B12: F2.39.2 human-murine chimeric antibody (antibody, human IgG1, kappa, V domains shown)
VH: B9 VH with L20V, V37M, F48I, I51N, D52E, G57R, T58S, N61D, R65K, A66G
VL: B9 VL with S28G, S32N, Q39H, T81S, S96N, Y101P, S105G
B13: F3.81.19 human-murine chimeric antibody (antibody, human IgG1, kappa, V domains shown)
VH: B9 VH with F48I, A50T, G57N, R65K, A66G, F99P, F102L, A103T
VL: B6 VL with M4L, I29F, N35D, E39Q, F41Y, S51L, P101Y, A105S, L111I
B14: F2.92.1 human-murine chimeric antibody (antibody, human IgG1, kappa, V domains shown)
VH: B9 VH with T28I, T30S, M34I, W47C, F48I, I51V, R65K, A66G, Y95F, A115T
VL: B9 VL with A19G, T81S, S94C, P100L, Y101P, S105G
B15: F4.26.1 human-murine chimeric antibody (antibody, human IgG1, kappa, V domains shown)
VH: QVQLKQSGPGLVQPSQSLSITCTVSGFSLTSYGVHWVRQSPGKGLEWLGVIWSSGNTDYNAVLISRLSIKKDDSKSQVFFKMNSPQVDDSAIYYCGRNGGWLLRGFMDFWGQGTSVTVSS
VL: B9 VL with V30L, Q39H, K44R, P45S, K50N, S70G, T81S, V90I, Y101W, S105G

Tests used:
[1] = target: T1, murine GPC3-his protein (Sino Biological, Cat. No. 50989-M08B) (murine, UniProt Q8CFZ4 25-558); assay: ELISA, coated murine GPC3-His;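 further: antigen coated on plates at 1 µg/mL, test antibody bound for 2 h at 37 °C, detected with HRP-conjugated secondary antibody and TMB substrate after acid stop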
T1 construct: Bought protein; also called murine GPC3 protein

[2] = target: biotinylated labeled human GPC3 protein (produced in-house) (human, UniProt P51654 25-559, limits assumed, biotinylated (Dojindo, Cat. No. LK03); sites not stated); assay: ELISA, biotinylated human GPC3 protein
[3] = target: T2, human GPC3 on CHO-K1-human GPC3 cells (CHOK1-hGPC3.2B5) (human, UniProt P51654 25-554); assay: FACS, CHOK1-hGPC3.2B5 cells;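 further: flow cytometry of humanized antibodies binding to the cells over one hour in the cold, read as cell mean fluorescence intensity, with EC50 obtained by curve fitting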
T2 construct: whole, on cells

T1 sequence (Q8CFZ4 25-558 limits assumed): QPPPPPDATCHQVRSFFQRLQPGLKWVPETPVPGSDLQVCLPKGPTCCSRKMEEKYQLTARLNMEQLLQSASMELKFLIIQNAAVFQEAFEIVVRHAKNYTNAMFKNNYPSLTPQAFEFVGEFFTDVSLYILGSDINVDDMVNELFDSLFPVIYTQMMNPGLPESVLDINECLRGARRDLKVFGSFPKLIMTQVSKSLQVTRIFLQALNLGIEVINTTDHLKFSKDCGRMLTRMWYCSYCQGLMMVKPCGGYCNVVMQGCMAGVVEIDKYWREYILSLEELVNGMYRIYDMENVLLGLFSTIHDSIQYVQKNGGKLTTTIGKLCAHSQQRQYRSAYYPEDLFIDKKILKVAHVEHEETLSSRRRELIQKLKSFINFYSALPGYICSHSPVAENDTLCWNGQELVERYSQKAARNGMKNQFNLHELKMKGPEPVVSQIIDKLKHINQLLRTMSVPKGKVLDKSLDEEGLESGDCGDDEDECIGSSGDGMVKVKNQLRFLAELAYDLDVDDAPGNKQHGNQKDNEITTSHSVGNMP

Row | Binder | OD450 at 0.0001 nM antibody [1] [OD450 nm] | OD450 at 0.001 nM antibody [1] [OD450 nm] | OD450 at 0.01 nM antibody [1] [OD450 nm] | OD450 at 0.1 nM antibody [1] [OD450 nm] | OD450 at 1 nM antibody [1] [OD450 nm] | OD450 at 10 nM antibody [1] [OD450 nm] | OD450 at 100 nM antibody [1] [OD450 nm] | OD450 at 0.0008 nM [2] [OD450] | OD450 at 0.004 nM [2] [OD450] | OD450 at 0.02 nM [2] [OD450] | OD450 at 0.11 nM [2] [OD450] | OD450 at 0.53 nM [2] [OD450] | OD450 at 2.67 nM [2] [OD450] | OD450 at 13.33 nM [2] [OD450] | OD450 at 66.66 nM [2] [OD450] | EC50 [3] [nM] | Max MFI [3] [MFI]
1 | B1 | 0.18 | 0.15 | 0.1 | 0.1 | 0.14 | 0.16 | 0.13 | – | – | – | – | – | – | – | – | – | –
2 | B2 | – | – | – | – | – | – | – | 0.162 | 0.341 | 0.926 | 2 | 2.64 | 2.67 | 2.72 | 2.74 | 0.313 | 3400
3 | B3 | – | – | – | – | – | – | – | – | – | – | – | – | – | – | – | 1.63 | 2530
4 | B4 | – | – | – | – | – | – | – | – | – | – | – | – | – | – | – | 0.399 | 3160
5 | B5 | – | – | – | – | – | – | – | 0.114 | 0.157 | 0.477 | 1.43 | 2.39 | 2.5 | 2.6 | 2.63 | 3.65 | 2360
6 | B6 | 0.05 | 0.12 | 0.67 | 1.94 | 2.54 | 2.53 | 2.47 | – | – | – | – | – | – | – | – | – | –
7 | B7 | 0.05 | 0.05 | 0.04 | 0.09 | 0.05 | 0.05 | 0.08 | – | – | – | – | – | – | – | – | – | –
8 | B8 | 0.06 | 0.11 | 0.54 | 2.12 | 2.86 | 2.88 | 2.87 | – | – | – | – | – | – | – | – | – | –
9 | B9 | 0.05 | 0.06 | 0.07 | 0.04 | 0.06 | 0.05 | 0.06 | – | – | – | – | – | – | – | – | – | –
10 | B10 | 0.06 | 0.06 | 0.05 | 0.04 | 0.05 | 0.06 | 0.12 | – | – | – | – | – | – | – | – | – | –
11 | B11 | 0.11 | 0.05 | 0.05 | 0.05 | 0.05 | 0.09 | 0.34 | – | – | – | – | – | – | – | – | – | –
12 | B12 | 0.05 | 0.06 | 0.07 | 0.05 | 0.05 | 0.05 | 0.06 | – | – | – | – | – | – | – | – | – | –
13 | B13 | 0.05 | 0.05 | 0.04 | 0.04 | 0.05 | 0.05 | 0.1 | – | – | – | – | – | – | – | – | – | –
14 | B14 | 0.04 | 0.05 | 0.05 | 0.07 | 0.05 | 0.05 | 0.07 | – | – | – | – | – | – | – | – | – | –
15 | B15 | 0.06 | 0.07 | 0.11 | 0.57 | 0.98 | 1.29 | 0.68 | – | – | – | – | – | – | – | – | – | –
